# According to publication PMC9810211:
# Biological target: SeTau-405 fluorescently labeled BOA (Burkholderia oklahomensis)
# Assay: other fluorescence titration
substance,measurement,value
SARS-CoV-2 Spike protein (Hexapro S) (from UniProt P0DTC2) (natural protein),half-saturation point,30 to 60 nM
